{
  "source": "paper PMC6339873",
  "about": "(Frontiers in Microbiology, 2018)",
  "key": {"[1]": {"target": "st_YfdX(YI), S. Typhi YfdX with Y100A and I137A (Salmonella enterica serovar Typhi)", "assay": "[…]; pH 6.0; […] (pH 6.0), 200 mM NaCl, 1 mM DTT, […]"}, "[2]": {"target": "st_YfdX(YI), S. Typhi YfdX with Y100A and I137A (Salmonella enterica serovar Typhi)", "assay": "[…]; pH 7.5; […] (pH 7.5), 200 mM NaCl, 1 mM DTT, […]"}, "[3]": {"target": "the molecule itself", "assay": "SEC-MALS; pH 10.0 (kp_YfdX, Supplementary Figure S1)"}, "[4]": {"target": "the molecule itself", "assay": "SEC-MALS; Superdex 75 Increase 10/300 GL; pH 6.0; st_YfdX proteins in 20 mM Bis-Tris-HCl (pH 6.0), 200 mM NaCl, 1 mM DTT, wild type at 10 and 30 mg/mL, mutants at 30 mg/mL; buffer and concentration of kp_YfdX not told"}, "[5]": {"target": "the molecule itself", "assay": "[…]; pH 7.5; […] (pH 7.5), 200 mM NaCl, 1 mM DTT, […]"}, "[6]": {"target": "the molecule itself", "assay": "crystal structure; sitting-drop vapor diffusion at 18°C; crystal I and II at pH 4.6 (F222), crystal III at pH 5.0 (P222); crystals II and III from protein with 1 mM ZnCl2; the tetramer is seen in the crystal lattice"}},
  "data": [
    {"molecule": "st_YfdX(YI), S. Typhi YfdX with Y100A and I137A (domain or fragment)", "values": [
      {"measurement": "stoichiometry N", "setting": "[1]", "result": 2},
      {"measurement": "stoichiometry N", "setting": "[2]", "result": 2}
    ]},
    {"molecule": "K. pneumoniae YfdX (kp_YfdX), recombinant (natural protein, YfdX of Klebsiella pneumoniae; Cloned into pET21a; PDB 3DZA (cited) holds a crystal structure of the same protein) ATDSATAAPAAAATTQVQKEAADVLQVAVQGANAMRDIQFARLALFHGQPDSAKKLTDDAAALLAADDASWAKFVKTDAKAKMIADRYVIINASIALSEDYVATPEKESAIQSANEKLAKGDQKGAIDTLRLAGIGVIENQYLMPLNQTRKAVAQSQELLKAGKYYEANLVLKGAEEGIVVDSEMLVAGN", "values": [
      {"measurement": "stoichiometry N", "setting": "[3]", "result": 2},
      {"measurement": "stoichiometry N", "setting": "[4]", "result": 4}
    ]},
    {"molecule": "S. Typhi YfdX, residues 10-186 (st_YfdX), wild type (domain or fragment) MAATNMTDNVTLNNDKISGQAWQAMRDIGMSRFELFNGRTQKAEQLAAQAEKLLNDDSTDWNLYVKSDKKAPVEGDHYIRINSSITVAEDYLPAGQKNDAINKANQKMKEGDKKGTIEALKLAGVSVIENQELIPLQQTRKDVTTALSLMNEGKYYQAGLLLKSAQDGIVVDSQSVQLEHHHHHH", "values": [
      {"measurement": "stoichiometry N", "setting": "[5]", "result": 2},
      {"measurement": "stoichiometry N", "setting": "[6]", "result": 4}
    ]}
  ]
}
